Where “and” joins values, the source holds several entries; their conditions need not be identical. Equal values may be shown once.

T1: Salmonella enterica serovar Typhimurium FliR (Salmonella enterica serovar Typhimurium, UniProt P54702 1-264)
T1 construct: FliR, flagellar export gate component, Salmonella enterica serovar Typhimurium; expressed from the complete operon; 'full length' rests on the words 'the same strategy of expression of the complete operon'; source: purified from membranes
T1 sequence: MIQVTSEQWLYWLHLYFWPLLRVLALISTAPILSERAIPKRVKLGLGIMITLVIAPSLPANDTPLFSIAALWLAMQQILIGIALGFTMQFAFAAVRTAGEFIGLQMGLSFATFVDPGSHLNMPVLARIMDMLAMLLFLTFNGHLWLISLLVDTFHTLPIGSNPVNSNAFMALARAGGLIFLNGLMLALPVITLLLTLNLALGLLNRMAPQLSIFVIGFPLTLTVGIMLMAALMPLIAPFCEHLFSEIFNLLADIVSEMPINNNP

B1: Salmonella enterica serovar Typhimurium FliP (natural protein)
chain: QLPGLISQPLAGGGQSWSLSVQTLVFITSLTFLPAILLMMTSFTRIIIVFGLLRNALGTPSAPPNQVLLGLALFLTFFIMSPVIDKIYVDAYQPFSEQKISMQEALDKGAQPLRAFMLRQTREADLALFARLANSGPLQGPEAVPMRILLPAYVTSELKTAFQIGFTIFIPFLIIDLVIASVLMALGMMMVPPATIALPFKLMLFVLVDGWQLLMGSLAQSFYS
notes: FliP, flagellar export gate component, Salmonella enterica serovar Typhimurium; expressed from the complete operon; source: purified from membranes
B2: Salmonella enterica serovar Typhimurium FliQ (natural protein)
chain: MTPESVMMMGTEAMKVALALAAPLLLVALITGLIISILQAATQINEMTLSFIPKIVAVFIAIIVAGPWMLNLLLDYVRTLFSNLPYIIG
notes: FliQ, flagellar export gate component, Salmonella enterica serovar Typhimurium; expressed from the complete operon; 'full length' rests on the words 'the same strategy of expression of the complete operon'; source: purified from membranes
B3: Shigella flexneri SctS (Spa9) (natural protein)
chain: MSDIVYMGNKALYLILIFSLWPVGIATVIGLSIGLLQTVTQLQEQTLPFGIKLIGVSISLLLLSGWYGEVLLSFCHEIMFLIKSGV
notes: Spa9 (SctS), export gate component of the Shigella flexneri virulence type III secretion system; expressed from the complete operon (Spa24/Spa9/Spa29); Two to four copies stand in the SctRST complexes; 'full length' rests on the words 'expression of the complete operon'; source: E. coli BL21, co-expressed from plasmid pT12_Spa24929, membranes dissolved in 1% LMNG, purified (StrepTrap, SEC)

Data set [1] concerns the molecule itself. Put plainly: cryo-EM structure; re-refinement in RELION-3 of the original S. Typhimurium FliPQR single-particle data of ref. 17 (particle polishing, per-particle CTF refinement), 3.65 Å; coordinates remodeled and re-refined.
The target of data set [2] is T1, Salmonella enterica serovar Typhimurium …. Described as above. The following applies: both partners purified.
For data set [3], the target named is B1. The description is as above. The following applies: both partners purified.
Data set [4] deals with the molecule itself. Put plainly: cryo-EM structure; SctRST co-expressed from the operon in E. coli, complex purified by the Dual-Strep tag on SctT and SEC; 0.01% LMNG in TBS (100 mM Tris, 150 mM NaCl, 1 mM EDTA, pH 8), 8.4 mg/ml; single-particle reconstruction at 3.5 Å, with further 3D classification of the particle set.

For B1, the binding result in data set [1] and in data set [2] was “binds” in each case.

For the molecule B2, the binding result in data set [1], in data set [3] and in data set [2] was “binds” throughout.

Turning to B3, the stoichiometry N (as a rule, a count of units in the complex or per binding partner) in data set [4] is 2 and 3.

For the origin of these results see paper PMC6593402, “The Structure of an Injectisome Export Gate Demonstrates Conservation of Architecture in the Core Export Gate between Flagellar and Virulence Type III Secretion Systems” (mBio, 2019).
